Results taken from patent US20190359687A1 (Bayer, published 2019).
Each block holds one binder with its values, some of them ahead of it.

Legend:
[1] = biological target: T1, human glycophorin A on human red blood cells (human, UniProt P02724 20-150); test: partition to human RBC, human HemA plasma, 30 min
T1 construct: whole, on cells; also called human GPA; huGPA
T1 sequence (looked up): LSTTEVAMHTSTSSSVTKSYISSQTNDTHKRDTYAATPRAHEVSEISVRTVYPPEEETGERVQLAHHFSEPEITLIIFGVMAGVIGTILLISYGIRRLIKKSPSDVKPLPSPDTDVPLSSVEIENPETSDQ

[2] = biological target: T2, Cynomolgus monkey glycophorin A on Cynomolgus monkey red blood cells (Cynomolgus monkey); test: partition to Cyno RBC, human HemA plasma, 60 min;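 note: FVIII fusion spiked at 1 IU/mL into RBC suspension at whole-blood density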
T2 construct: whole, on cells; also called Cyno GPA; Cyno RBC

[3] = biological target: T2, Cynomolgus monkey glycophorin A on …; test: partition to Cyno RBC, human HemA plasma, 5 min;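 note: FVIII fusion spiked at 1 IU/mL into RBC suspension at whole-blood density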
[4] = biological target: T2, Cynomolgus monkey glycophorin A on …; test: partition to Cyno RBC, human HemA plasma, 30 min;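 note: FVIII fusion spiked at 1 IU/mL into RBC suspension at whole-blood density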
Experimental: (§1) To evaluate partition to cynomolgus monkey or human red blood cells, whole blood was draw from Cynomolgus monkey or normal human volunteers in to anticoagulant with 4% sodium citrate (Sigma, St Louis, Mo.). The red blood cells were purified by layering the whole blood on to ficoll followed by low speed centrifugation. The supernatant containing plasma, platelets and white blood cells was discarded and the red blood cell pellet was resuspended in 10 pellet volumes of PBS (50 mM Phosphate buffer, pH7.4, 150 mM NaCl). The red blood cells were then pelleted by slow speed centrifugation and the red blood cells re-suspended in 10 volumes of PBS. This washing step was repeated 4 more times and the red blood cells finally resuspended in a volume of plasma from Hemophilia patients with less than 1% of normal levels of FVIII (GeorgeKing Bio-Medical, Overland Park, Kans.) to generate a total volume equal to the initial blood volume such that the RBC density was equal to that of normal whole blood. BDD and RBC targeted FVIII molecules were then spiked into RBC suspension in HemA plasma at 1 IU/mL, and incubated at room temperature for 2-3 hours with gentle rotation. […] An additional control was performed in which BDD or RBC targeted FVIII molecules were added at 11U/ml into the same human hemophilia A plasma and incubated for 5 minutes and 180 mins. These samples were used to determine the input FVIII activity in the presence of plasma which was used to calculate the percentage of the molecule that was bound to RBC. All plasma samples were then assayed together for FVIII activity using the Coatest SP assay (DiaPharma, Columbus, Ohio). The assay was performed following the manufacturer's instructions in a 96-well plate format. […] The plate was incubated at 37° C. for 10 minutes with shaking between each reagent addition.

[5] = biological target: T1, human glycophorin A on human red blood …; test: partition to human RBC, human HemA plasma, 120 min
Experimental: (§2) The supernatant containing plasma, platelets and white blood cells was discarded and the red blood cell pellet was resuspended in 10 pellet volumes of PBS (50 mM Phosphate buffer, pH7.4, 150 mM NaCl). The red blood cells were then pelleted by slow speed centrifugation and the red blood cells re-suspended in 10 volumes of PBS. This washing step was repeated 4 more times and the red blood cells finally resuspended in a volume of plasma from Hemophilia patients with less than 1% of normal levels of FVIII (GeorgeKing Bio-Medical, Overland Park, Kans.) to generate a total volume equal to the initial blood volume such that the RBC density was equal to that of normal whole blood. BDD and RBC targeted FVIII molecules were then spiked into RBC suspension in HemA plasma at 1 IU/mL, and incubated at room temperature for 2-3 hours with gentle rotation. […] An additional control was performed in which BDD or RBC targeted FVIII molecules were added at 11U/ml into the same human hemophilia A plasma and incubated for 5 minutes and 180 mins. These samples were used to determine the input FVIII activity in the presence of plasma which was used to calculate the percentage of the molecule that was bound to RBC. All plasma samples were then assayed together for FVIII activity using the Coatest SP assay (DiaPharma, Columbus, Ohio). The assay was performed following the manufacturer's instructions in a 96-well plate format. […] The plate was incubated at 37° C. for 10 minutes with shaking between each reagent addition. […] The amount of FVIII activity in the plasma reflects the amount of unbound FVIII. The FVIII activity of the same molecule spiked in to Hemophilia A plasma alone (no RBC) and incubated for 5 minutes was normalized to 100%.

[6] = biological target: T1, human glycophorin A on human red blood …; test: partition to human RBC, human HemA plasma, 15 min
Experimental: as §2

[7] = biological target: T2, Cynomolgus monkey glycophorin A on …; test: partition to Cyno RBC, human HemA plasma, 1 min;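 note: FVIII fusion spiked at 1 IU/mL into RBC suspension at whole-blood density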
Experimental: as §1

[8] = biological target: T2, Cynomolgus monkey glycophorin A on …; test: partition to Cyno RBC, human HemA plasma, 120 min;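 note: FVIII fusion spiked at 1 IU/mL into RBC suspension at whole-blood density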
Experimental: as §1

[9] = biological target: T1, human glycophorin A on human red blood …; test: partition to human RBC, human HemA plasma, 1 min
[10] = biological target: T1, human glycophorin A on human red blood …; test: partition to human RBC, human HemA plasma, 5 min
Experimental: as §2

[11] = biological target: T1, human glycophorin A on human red blood …; test: partition to human RBC, human HemA plasma, 120 min; remark: listed apart in the source
Experimental: as §2

[12] = biological target: T1, human glycophorin A on human red blood …; test: partition to human RBC, human HemA plasma, 60 min
Experimental: as §2

[13] = biological target: T2, Cynomolgus monkey glycophorin A on …; test: partition to Cyno RBC, human HemA plasma, 15 min;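 note: FVIII fusion spiked at 1 IU/mL into RBC suspension at whole-blood density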
Experimental: as §1

percentage bound to human RBC [1]: 57.7%
% bound to Cyno RBC [2]: 52.9%
% bound to Cyno RBC [3]: 38.2%
% bound to Cyno RBC [4]: 43.2%
percentage bound to human RBC [5]: 71.8%
percentage bound to human RBC [6]: 52%
% bound to Cyno RBC [7]: 30.9%
% bound to Cyno RBC [8]: 55.1%
percentage bound to human RBC [9]: 19.3%
percentage bound to human RBC [10]: 34.4%
percentage bound to human RBC [11]: 71.8%
percentage bound to human RBC [12]: 66.9%
% bound to Cyno RBC [13]: 40.6%
B1: TPP-9900 FVIII-scFv fusion protein (other)
chain: DIQLTQSPSFLSASVGDRVTITCRASSSVRYIYWFQQKPGKAPKLLIYATSFRQSGVPSRFSGSGSGTEYTLTISSLQPEDFATYYCHQRNSFPYTFGQGTKLEIKGGGGSGGGGSGGGGSGGGGSEVQLVQSGAEVKKPGASVKVSCKASGYTFTTYAIHWVRQAPGQGLEWMGYINPSSGYTRYNPKFKGRVTMTRDKSTSTAYMELRSLRSDDTAVYYCWTGTRDYWGQGTTVTVSSGGGSGGGGSGLVPRGSGGGSGGGGSGATRRYYLGAVELSWDYMQSDLGELPVDARFPPRVPKSFPFNTSVVYKKTLFVEFTDHLFNIAKPRPPWMGLLGPTIQAEVYDTVVITLKNMASHPVSLHAVGVSYWKASEGAEYDDQTSQREKEDDKVFPGGSHTYVWQVLKENGPMASDPLCLTYSYLSHVDLVKDLNSGLIGALLVCREGSLAKEKTQTLHKFILLFAVFDEGKSWHSETKNSLMQDRDAASARAWPKMHTVNGYVNRSLPGLIGCHRKSVYWHVIGMGTTPEVHSIFLEGHTFLVRNHRQASLEISPITFLTAQTLLMDLGQFLLFCHISSHQHDGMEAYVKVDSCPEEPQLRMKNNEEAEDYDDDLTDSEMDVVRFDDDNSPSFIQIRSVAKKHPKTWVHYIAAEEEDWDYAPLVLAPDDRSYKSQYLNNGPQRIGRKYKKVRFMAYTDETFKTREAIQHESGILGPLLYGEVGDTLLIIFKNQASRPYNIYPHGITDVRPLYSRRLPKGVKHLKDFPILPGEIFKYKWTVTVEDGPTKSDPRCLTRYYSSFVNMERDLASGLIGPLLICYKESVDQRGNQIMSDKRNVILFSVFDENRSWYLTENIQRFLPNPAGVQLEDPEFQASNIMHSINGYVFDSLQLSVCLHEVAYWYILSIGAQTDFLSVFFSGYTFKHKMVYEDTLTLFPFSGETVFMSMENPGLWILGCHNSDFRNRGMTALLKVSSCDKNTGDYYEDSYEDISAYLLSKNNAIEPRSFSQNDENQSPRSFQKKTRHYFIAAVERLWDYGMSSSPHVLRNRAQSGSVPQFKKVVFQEFTDGSFTQPLYRGELNEHLGLLGPYIRAEVEDNIMVTFRNQASRPYSFYSSLISYEEDQRQGAEPRKNFVKPNETKTYFWKVQHHMAPTKDEFDCKAWAYFSDVDLEKDVHSGLIGPLLVCHTNTLNPAHGRQVTVQEFALFFTIFDETKSWYFTENMERNCRAPCNIQMEDPTFKENYRFHAINGYIMDTLPGLVMAQDQRIRWYLLSMGSNENIHSIHFSGHVFTVRKKEEYKMALYNLYPGVFETVEMLPSKAGIWRVECLIGEHLHAGMSTLFLVYSNKCQTPLGMASGHIRDFQITASGQYGQWAPKLARLHYSGSINAWSTKEPFSWIKVDLLAPMIIHGIKTQGARQKFSSLYISQFIIMYSLDGKKWQTYRGNSTGTLMVFFGNVDSSGIKHNIFNPPIIARYIRLHPTHYSIRSTLRMELMGCDLNSCSMPLGMESKAISDAQITASSYFTNMFATWSPSKARLHLQGRSNAWRPQVNNPKEWLQVDFQKTMKVTGVTTQGVKSLLTSMYVKEFLISSSQDGHQWTLFFQNGKVKVFQGNQDSFTPVVNSLDPPLLTRYLRIHPQSWVHQIALRMEVLGCEAQDLYGGGSGGGGSGLVPRGSGGGSGGGGSGDIQLTQSPSFLSASVGDRVTITCRASSSVRYIYWFQQKPGKAPKLLIYATSFRQSGVPSRFSGSGSGTEYTLTISSLQPEDFATYYCHQRNSFPYTFGQGTKLEIKGGGGSGGGGSGGGGSGGGGSEVQLVQSGAEVKKPGASVKVSCKASGYTFTTYAIHWVRQAPGQGLEWMGYINPSSGYTRYNPKFKGRVTMTRDKSTSTAYMELRSLRSDDTAVYYCWTGTRDYWGQGTTVTVSS

percentage bound to human RBC [1]: 94.5%
% bound to Cyno RBC [2]: 89%
% bound to Cyno RBC [3]: 83%
% bound to Cyno RBC [4]: 87.8%
percentage bound to human RBC [5]: 95.6%
percentage bound to human RBC [6]: 94.4%
% bound to Cyno RBC [7]: 62.9%
% bound to Cyno RBC [8]: 89.1%
percentage bound to human RBC [9]: 76.5%
percentage bound to human RBC [10]: 90.5%
percentage bound to human RBC [11]: 95.6%
percentage bound to human RBC [12]: 95.2%
% bound to Cyno RBC [13]: 87.2%
B2: TPP-9424 FVIII-scFv fusion protein (other)
chain: DIQLTQSPSFLSASVGDRVTITCRASSSVRYIYWFQQKPGKAPKLLIYATSFRQSGVPSRFSGSGSGTEYTLTISSLQPEDFATYYCHQRNSFPYTFGQGTKLEIKGGGGSGGGGSGGGGSGGGGSEVQLVQSGAEVKKPGASVKVSCKASGYTFTTYAIHWVRQAPGQGLEWMGYINPSSGYTRYNPKFKGRVTMTRDKSTSTAYMELRSLRSDDTAVYYCWTGTRDYWGQGTTVTVSSGGGSGGGGSGLVPRGSGGGSGGGGSGATRRYYLGAVELSWDYMQSDLGELPVDARFPPRVPKSFPFNTSVVYKKTLFVEFTDHLFNIAKPRPPWMGLLGPTIQAEVYDTVVITLKNMASHPVSLHAVGVSYWKASEGAEYDDQTSQREKEDDKVFPGGSHTYVWQVLKENGPMASDPLCLTYSYLSHVDLVKDLNSGLIGALLVCREGSLAKEKTQTLHKFILLFAVFDEGKSWHSETKNSLMQDRDAASARAWPKMHTVNGYVNRSLPGLIGCHRKSVYWHVIGMGTTPEVHSIFLEGHTFLVRNHRQASLEISPITFLTAQTLLMDLGQFLLFCHISSHQHDGMEAYVKVDSCPEEPQLRMKNNEEAEDYDDDLTDSEMDVVRFDDDNSPSFIQIRSVAKKHPKTWVHYIAAEEEDWDYAPLVLAPDDRSYKSQYLNNGPQRIGRKYKKVRFMAYTDETFKTREAIQHESGILGPLLYGEVGDTLLIIFKNQASRPYNIYPHGITDVRPLYSRRLPKGVKHLKDFPILPGEIFKYKWTVTVEDGPTKSDPRCLTRYYSSFVNMERDLASGLIGPLLICYKESVDQRGNQIMSDKRNVILFSVFDENRSWYLTENIQRFLPNPAGVQLEDPEFQASNIMHSINGYVFDSLQLSVCLHEVAYWYILSIGAQTDFLSVFFSGYTFKHKMVYEDTLTLFPFSGETVFMSMENPGLWILGCHNSDFRNRGMTALLKVSSCDKNTGDYYEDSYEDISAYLLSKNNAIEPRSFSQNDENQSPRSFQKKTRHYFIAAVERLWDYGMSSSPHVLRNRAQSGSVPQFKKVVFQEFTDGSFTQPLYRGELNEHLGLLGPYIRAEVEDNIMVTFRNQASRPYSFYSSLISYEEDQRQGAEPRKNFVKPNETKTYFWKVQHHMAPTKDEFDCKAWAYFSDVDLEKDVHSGLIGPLLVCHTNTLNPAHGRQVTVQEFALFFTIFDETKSWYFTENMERNCRAPCNIQMEDPTFKENYRFHAINGYIMDTLPGLVMAQDQRIRWYLLSMGSNENIHSIHFSGHVFTVRKKEEYKMALYNLYPGVFETVEMLPSKAGIWRVECLIGEHLHAGMSTLFLVYSNKCQTPLGMASGHIRDFQITASGQYGQWAPKLARLHYSGSINAWSTKEPFSWIKVDLLAPMIIHGIKTQGARQKFSSLYISQFIIMYSLDGKKWQTYRGNSTGTLMVFFGNVDSSGIKHNIFNPPIIARYIRLHPTHYSIRSTLRMELMGCDLNSCSMPLGMESKAISDAQITASSYFTNMFATWSPSKARLHLQGRSNAWRPQVNNPKEWLQVDFQKTMKVTGVTTQGVKSLLTSMYVKEFLISSSQDGHQWTLFFQNGKVKVFQGNQDSFTPVVNSLDPPLLTRYLRIHPQSWVHQIALRMEVLGCEAQDLY
notes: also called PPB 7888
